For this data set, the target named is T1, rPPE2 (Mycobacterium tuberculosis, UniProt P9WI47 1-556).
T1 sequence: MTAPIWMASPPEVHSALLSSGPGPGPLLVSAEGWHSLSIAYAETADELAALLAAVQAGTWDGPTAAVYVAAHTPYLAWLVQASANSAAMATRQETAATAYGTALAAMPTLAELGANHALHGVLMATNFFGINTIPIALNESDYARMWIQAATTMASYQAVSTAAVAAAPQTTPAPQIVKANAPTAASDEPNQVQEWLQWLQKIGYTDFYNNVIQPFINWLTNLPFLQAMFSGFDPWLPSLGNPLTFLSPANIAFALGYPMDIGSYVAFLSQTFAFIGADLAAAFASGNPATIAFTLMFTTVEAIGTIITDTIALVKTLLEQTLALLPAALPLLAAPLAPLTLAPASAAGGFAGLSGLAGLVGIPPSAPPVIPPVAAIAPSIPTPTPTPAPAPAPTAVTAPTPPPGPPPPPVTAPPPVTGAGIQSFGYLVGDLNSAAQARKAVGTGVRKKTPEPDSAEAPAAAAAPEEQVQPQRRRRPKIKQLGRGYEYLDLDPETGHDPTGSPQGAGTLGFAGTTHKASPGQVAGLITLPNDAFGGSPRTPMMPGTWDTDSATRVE
Put plainly: EMSA; 20 mM HEPES, 0.5 mM DTT, 0.5 mM EDTA, 5% glycerol; […]; 30 min at room temperature; […]. As to conditions: protein: recombinant; tags: His (pRSET-A vector, TALON purified); label: 32P 5' end label (T4 PNK). On the technique in general: A gel shift assay detects complexes by their altered migration in electrophoresis.

B1: scf core promoter 60-bp EMSA oligonucleotide (dsDNA)
DNA 1: CGCGTGCGGGCGGGAGGGAGCTGTATAAAAAGCGCTGGCGGCGCAGCAGCCGGGGCTTCATTTGCG
DNA 2: CGCAAATGAAGCCCCGGCTGCTGCGCCGCCAGCGCTTTTTATACAGCTCCCTCCCGCCCGCACGCG
As for B1, the binding result is listed as “binds”.

The values above are taken from article PMC9449591, “Therapeutic application of PPE2 protein of Mycobacterium tuberculosis in inhibiting tissue inflammation”.
